Reference: patent US20140234339A1 (JULIUS MAXIMILIANS UNIVERSIT T W RZBURG, published 2014)

Legend:
[1] = target: T1, IsaA (immunodominant structure IsaA of Staphylococcus aureus) (Staphylococcus aureus, UniProt P99160 30-233, limits assumed); experiment: SPR (BIACORE 2000), UK66-2 captured via anti-Fab antibody, IsaA as analyte, 25 C, 1:1 Langmuir fit
T1 construct: The ELISA text calls it soluble recombinant IsaA; also called IsaA antigen; soluble recombinant IsaA
T1 sequence (looked up): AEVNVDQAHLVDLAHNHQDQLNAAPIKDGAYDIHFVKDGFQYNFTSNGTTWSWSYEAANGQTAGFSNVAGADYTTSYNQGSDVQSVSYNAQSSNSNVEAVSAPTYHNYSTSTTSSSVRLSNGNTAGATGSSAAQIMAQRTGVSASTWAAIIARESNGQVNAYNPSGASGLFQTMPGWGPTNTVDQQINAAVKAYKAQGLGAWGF

[2] = target: T1, IsaA (immunodominant structure IsaA of …); experiment: SPR (BIACORE 2000), UK66-2 captured via anti-Fab antibody, IsaA as analyte, 25 C, 1:1 Langmuir fit, two independent measurements

B1: antibody UK66-2 (antibody, V domains shown)
VH: EVQLLESGGGLVQPGGSLRLSCAASGFTFSNYYMSWVRQAPGKGLEWVSDINGNGGSTYYPDTVKGRFTISRDNSKNTLYLQMNSLRAEDTAVYYCVRRGGYYALDYWGQGTTVTVSS
VL: DVVMTQTPLSLSVTPGQPASISCRSSQSLVHINGNTYLHWYLQKPGQSPQLLIYRVSNRFSGVPDRFSGSGSGTDFTLKISRVEAEDVGVYYCSQSTHVPWTFGGGTKLELKR
notes: In the SPR assay it was captured by an anti-Fab antibody; also called anti-IsaA antibody UK66-2
koff [1]: 0.0018 s⁻¹ | kon [1]: 370000 M⁻¹ s⁻¹ | Kd [2]: 4.8 nM
